Consider 1 molecule from patent WO2020171171A1 (dated 2020).

For the experiment, the target named is HLA-DR antigen expressed on human cells (L428, KM-H2, B cells of PBMC, other cancer cell lines, tumour tissue) (human). Put plainly: cell-based or functional assay.

B1: BP1206 chimeric antibody (human Fc chimeric recombinant antibody designed based on the antibody LN-3) (antibody, human IgG1, kappa, L234A L235A, V domains shown)
VH: QVHLKQSGPGLVQPSQSLSITCTVSGFSLTRFGVHWIRQSPGKSLEWLGVTWSGGTTVYNGAFISRLSITKDISKSQVFFKMNSLQVDDTGIYYCARAYYAMDYWGQGTSVTVSS
VL: DVQMTQSPSYLAASPGETITIHCRASESIGKYLAWYQKKPGRSNRLLIYSGSTLQSGIPSRFSGSGSGTDFTLTVSSLEPEDFAMYYCQHHNDYPWTFGGGTKVEIKR
Turning to B1, the “decrease in abundance of B cells (CD19 positive cells) among live PBMC, relative to isotype control (1 μg/ml antibody, 2 h, flow cytometry)” value is about 60%.
